From PMC3725505 (Scientific Reports, 2013)
Ends that are not written are not given here.

Molecular target: Kelch domain of human Keap1 (residues 321-609) (human, UniProt Q14145 321-609)
Experiment: ITC

Sequence of Kelch domain of human Keap1 (residues 321-609) (Q14145 321-609): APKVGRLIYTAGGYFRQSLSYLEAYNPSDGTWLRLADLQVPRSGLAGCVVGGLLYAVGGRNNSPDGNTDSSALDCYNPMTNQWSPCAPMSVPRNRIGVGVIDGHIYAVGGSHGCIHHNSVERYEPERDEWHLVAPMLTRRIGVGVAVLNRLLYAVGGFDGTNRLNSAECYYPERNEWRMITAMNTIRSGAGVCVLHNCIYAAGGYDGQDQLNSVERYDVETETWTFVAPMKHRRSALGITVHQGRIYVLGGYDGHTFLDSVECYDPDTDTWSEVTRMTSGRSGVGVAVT

## SLEEPHSPETGEKVVAGEVN (also: phosphoserine (S286), position in chain not placed) [WTX pS286 peptide (20-mer, S286 phosphorylated)]
  dH: -45.3 ± 0.586 kJ/mol
